Results taken from patent US20250236657A1 (TOSOH, published 2025).

Experiments:
AAV2 D529A = target: T1, AAV2 D529A (adeno-associated virus serotype 2 (AAV2), UniProt P03135 1-735); assay: affinity HPLC on AVR11a column, pH gradient 6.0 to 2.0; no elution peak, not adsorbed and passed through
T1 construct: Recombinant AAV2 vector particles in filtered cell lysate

AAV2 H271F = target: T2, AAV2 H271F (adeno-associated virus serotype 2 (AAV2), UniProt P03135 1-735); assay: as above
T2 construct: Recombinant AAV2 vector particles in filtered cell lysate

AAV2 G383A = target: T3, AAV2 G383A (adeno-associated virus serotype 2 (AAV2), UniProt P03135 1-735); assay: as above
T3 construct: Recombinant AAV2 vector particles in filtered cell lysate

AAV2 H271Q = target: T4, AAV2 H271Q (adeno-associated virus serotype 2 (AAV2), UniProt P03135 1-735); assay: as above
T4 construct: Recombinant AAV2 vector particles in filtered cell lysate

AAV2 H271A = target: T5, AAV2 H271A (adeno-associated virus serotype 2 (AAV2), UniProt P03135 1-735); assay: as above
T5 construct: Recombinant AAV2 vector particles in filtered cell lysate

AAV2 H271T = target: T6, AAV2 H271T (adeno-associated virus serotype 2 (AAV2), UniProt P03135 1-735); assay: as above
T6 construct: Recombinant AAV2 vector particles in filtered cell lysate

AAV2 S264A = target: T7, AAV2 S264A (adeno-associated virus serotype 2 (AAV2), UniProt P03135 1-735); assay: affinity HPLC, AVR11a immobilization gel, linear pH gradient 6.0 to 2.0, AAV2 peak top
T7 construct: Recombinant AAV2 vector particles in filtered cell lysate

AAV2 Q385A = target: T8, AAV2 Q385A (adeno-associated virus serotype 2 (AAV2), UniProt P03135 1-735); assay: as above
T8 construct: Recombinant AAV2 vector particles in filtered cell lysate

[1] = target: T9, AAV2 (wild type), serotype 2 AAV with capsid region VP1 of SEQ ID NO: 99 (adeno-associated virus serotype 2 (AAV2), UniProt P03135 1-735); assay: as above
T9 construct: Recombinant AAV2 vector particles (EGFP genome) in filtered cell lysate; the capsid is assembled from VP1, VP2 and VP3

AAV2 T503S = target: T10, AAV2 T503S (adeno-associated virus serotype 2 (AAV2), UniProt P03135 1-735); assay: as above
T10 construct: Recombinant AAV2 vector particles in filtered cell lysate

AAV2 S267A = target: T11, AAV2 S267A (adeno-associated virus serotype 2 (AAV2), UniProt P03135 1-735); assay: as above
T11 construct: Recombinant AAV2 vector particles in filtered cell lysate

AAV2 S267T = target: T12, AAV2 S267T (adeno-associated virus serotype 2 (AAV2), UniProt P03135 1-735); assay: as above
T12 construct: Recombinant AAV2 vector particles in filtered cell lysate

AAV2 N382A = target: T13, AAV2 N382A (adeno-associated virus serotype 2 (AAV2), UniProt P03135 1-735); assay: as above
T13 construct: Recombinant AAV2 vector particles in filtered cell lysate

AAV2 E499A = target: T14, AAV2 E499A (adeno-associated virus serotype 2 (AAV2), UniProt P03135 1-735); assay: as above
T14 construct: Recombinant AAV2 vector particles in filtered cell lysate

AAV2 D528A = target: T15, AAV2 D528A (adeno-associated virus serotype 2 (AAV2), UniProt P03135 1-735); assay: as above
T15 construct: Recombinant AAV2 vector particles in filtered cell lysate

AAV2 R471A = target: T16, AAV2 R471A (adeno-associated virus serotype 2 (AAV2), UniProt P03135 1-735); assay: as above
T16 construct: Recombinant AAV2 vector particles in filtered cell lysate

AAV2 S384A = target: T17, AAV2 S384A (adeno-associated virus serotype 2 (AAV2), UniProt P03135 1-735); assay: as above
T17 construct: Recombinant AAV2 vector particles in filtered cell lysate

AAV2 D529E = target: T18, AAV2 D529E (adeno-associated virus serotype 2 (AAV2), UniProt P03135 1-735); assay: as above
T18 construct: Recombinant AAV2 vector particles in filtered cell lysate

AAV2 Q263A = target: T19, AAV2 Q263A (adeno-associated virus serotype 2 (AAV2), UniProt P03135 1-735); assay: as above
T19 construct: Recombinant AAV2 vector particles in filtered cell lysate

B1: AAV-binding protein AVR11a with cysteine tag (SEQ ID NO: 100), immobilised as AVR11a immobilization gel (receptor)
chain: MGSAGESDQITLPKNEVQLNVYVLQEPPKGETSTYDWQLITHPRDYSGEMEGEHSQILKLSNLTPGLYEFKAVVEGQNAHSEGYVNVTVEPEPRKNRPPIAIVSPQFQEISLPTTSTVIDGSQSTDDDKIVQYHWEELKGPLREEKISEDTAILKLSKLVPGNYTFRLTVVDSDGATDSTTANLTVNKAVDHHHHHHCRNDTCG
modifications: immobilised on a TOYOPEARL carrier with iodoacetamide groups; cysteine tag sequence serving as immobilization tag at positions 220-226
notes: KIAA0319L PKD1 and PKD2 with 11 substitutions (AVR10s plus Ala330Val); also called AVR11a column
binding result (AAV2 D529A): no binding
binding result (AAV2 H271F): no binding
binding result (AAV2 G383A): no binding
binding result (AAV2 H271Q): no binding
binding result (AAV2 H271A): no binding
binding result (AAV2 H271T): no binding
AVR11a column elution time (AAV2 S264A): 59.6 min
AVR11a column elution time (AAV2 Q385A): 57.7 min
AVR11a column elution time [1]: 59.8 min
AVR11a column elution time (AAV2 T503S): 55.2 min
AVR11a column elution time (AAV2 S267A): 59.4 min
AVR11a column elution time (AAV2 S267T): 59.2 min
AVR11a column elution time (AAV2 N382A): 53.5 min
AVR11a column elution time (AAV2 E499A): 59.3 min
AVR11a column elution time (AAV2 D528A): 55.5 min
AVR11a column elution time (AAV2 R471A): 60.3 min
AVR11a column elution time (AAV2 S384A): 58.6 min
AVR11a column elution time (AAV2 D529E): 54.5 min
AVR11a column elution time (AAV2 Q263A): 60.2 min
